Experimental findings from publication PMC6393303 are described below.

Some results are limits rather than exact numbers.

Assay [1] addresses wild-type proliferating cell nuclear antigen (PCNA) (yeast) (UniProt P15873).
For assay [2], the target named is pcna-6 (DD41,42AA) mutant PCNA (yeast) (UniProt P15873).
The target in assay [3] is wild-type proliferating cell nuclear antigen (PCNA) (yeast) (UniProt P15873). The source holds these as a separate data set.
The target of assay [4] is pcna-6 (DD41,42AA) mutant PCNA (yeast) (UniProt P15873). The source holds these as a separate data set.
Assay [5] addresses wild-type proliferating cell nuclear antigen (PCNA) (yeast) (UniProt P15873). This is another data set of the same source.
For assay [6] the target is unchanged. The source holds these as a separate data set.

wild-type proliferating cell nuclear antigen (PCNA) (yeast), sequence (P15873 whole entry): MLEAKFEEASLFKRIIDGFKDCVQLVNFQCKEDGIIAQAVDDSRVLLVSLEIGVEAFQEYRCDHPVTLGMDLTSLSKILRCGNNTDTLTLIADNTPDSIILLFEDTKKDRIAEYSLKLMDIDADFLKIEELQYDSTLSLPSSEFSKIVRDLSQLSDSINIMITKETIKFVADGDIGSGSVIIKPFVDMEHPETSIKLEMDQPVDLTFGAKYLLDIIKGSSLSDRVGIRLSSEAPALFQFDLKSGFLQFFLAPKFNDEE
pcna-6 (DD41,42AA) mutant PCNA (yeast), sequence (P15873 other isoform, or with tags, fused parts or gaps mutant): as the sequence (P15873 whole entry) above, with D41A, D42A counted along it

In the case of “DNA polymerase δ (Pol δ-DV), full-length exonuclease-deficient (D520V) heterotrimer (from UniProt P15436 1-1097; P46957 1-487; P47110 1-350) (complex)”, the results for the single-nucleotide extension rate (k fast), quench flow, 76/29 template/primer, 12°C in assay [1] and in assay [2] were 183 s⁻¹ and 55 s⁻¹, respectively.

For “mini-Pol δ-DV (variant DNA polymerase δ heterotrimer, exonuclease-deficient D520V) (from UniProt P15436 82-1097; P46957 1-487; P47110 1-350) (complex)”, the peak of the normalized product distribution (nucleotides incorporated) at 10 and 50 ms, single processive cycle with heparin trap worked out at 16 nucleotides in assay [3] and 7 nucleotides in assay [4]. This substance also gave a replication of the T20 template by the fastest moving complexes, quench flow, 100 mM NaCl (nucleotides per second) in assay [5] of 500. Further, the nucleotide incorporation rate (rate of primer disappearance, single exponential fit), quench flow, 75/29 template/primer, 300 nM mini-Pol δ-DV, 150 nM PCNA, 75 nM RFC, AMP-CPP, 100 mM NaCl, 30°C in assay [6] is > 350 s⁻¹.
